The source of these data is patent US11098102B2, “Insulin conjugates” (SANOFI, priority 2018, dated 2021).

The target in one series is Cathepsin D (Homo sapiens, UniProt P07339). Put plainly: In vitro proteolytic stability against cathepsin D (Example 9). The series is classed as in vitro ADME. Particulars: 37° C., 2 μM.
For series [1], the target named is T1, insulin receptor isoform B (IR-B) (Homo sapiens, UniProt P06213). Description: Insulin receptor autophosphorylation assay (In-Cell Western, CHO cells, Example 8B). Conditions: relative to human insulin. Type of series: cell-based. Further details: expressed in transfected cells; host or cells: CHO cells.
T1 sequence (P06213 28-758 limits assumed): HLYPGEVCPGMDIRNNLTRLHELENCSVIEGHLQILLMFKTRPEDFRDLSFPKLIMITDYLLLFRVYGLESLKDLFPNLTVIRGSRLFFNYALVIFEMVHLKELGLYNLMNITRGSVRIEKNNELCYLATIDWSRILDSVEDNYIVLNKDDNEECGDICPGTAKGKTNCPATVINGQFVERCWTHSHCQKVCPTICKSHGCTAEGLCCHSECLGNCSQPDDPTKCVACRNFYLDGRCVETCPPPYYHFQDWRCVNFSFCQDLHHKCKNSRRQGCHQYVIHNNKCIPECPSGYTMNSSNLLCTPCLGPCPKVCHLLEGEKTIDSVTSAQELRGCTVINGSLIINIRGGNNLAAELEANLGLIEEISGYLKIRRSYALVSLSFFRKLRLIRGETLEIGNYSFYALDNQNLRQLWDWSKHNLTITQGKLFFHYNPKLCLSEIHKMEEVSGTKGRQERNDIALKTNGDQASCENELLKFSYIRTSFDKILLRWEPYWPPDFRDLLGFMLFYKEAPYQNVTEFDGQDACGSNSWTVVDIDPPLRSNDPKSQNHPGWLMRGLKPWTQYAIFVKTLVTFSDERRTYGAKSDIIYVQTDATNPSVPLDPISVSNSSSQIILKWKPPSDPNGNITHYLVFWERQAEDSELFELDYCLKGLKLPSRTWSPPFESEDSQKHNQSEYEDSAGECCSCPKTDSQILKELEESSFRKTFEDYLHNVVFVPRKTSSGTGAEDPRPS
T1 sequence (P06213 763-1382 limits assumed): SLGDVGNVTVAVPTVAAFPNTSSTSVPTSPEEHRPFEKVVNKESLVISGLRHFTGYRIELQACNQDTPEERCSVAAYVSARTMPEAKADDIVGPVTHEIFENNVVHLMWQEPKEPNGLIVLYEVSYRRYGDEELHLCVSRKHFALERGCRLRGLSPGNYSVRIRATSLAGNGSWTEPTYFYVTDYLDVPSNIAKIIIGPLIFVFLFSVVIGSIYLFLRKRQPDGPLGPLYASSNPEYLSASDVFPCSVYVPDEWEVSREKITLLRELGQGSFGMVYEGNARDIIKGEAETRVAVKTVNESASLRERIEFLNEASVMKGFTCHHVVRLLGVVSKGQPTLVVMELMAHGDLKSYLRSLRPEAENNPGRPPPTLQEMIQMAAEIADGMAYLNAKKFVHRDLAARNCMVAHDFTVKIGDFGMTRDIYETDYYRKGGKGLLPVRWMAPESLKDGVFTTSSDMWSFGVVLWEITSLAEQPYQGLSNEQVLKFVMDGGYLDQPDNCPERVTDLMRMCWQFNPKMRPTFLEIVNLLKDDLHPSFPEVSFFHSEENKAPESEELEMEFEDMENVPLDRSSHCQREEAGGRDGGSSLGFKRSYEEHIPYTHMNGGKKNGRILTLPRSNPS
For the next series, the target named is α-Chymotrypsin (Bos taurus, UniProt P00766). Description: In vitro proteolytic stability against α-chymotrypsin (Example 9). Type of series: in vitro ADME. Conditions: 37° C., 2 μM.
Series [2] deals with Insulin degrading enzyme, IDE (Homo sapiens, UniProt P14735). Description: In vitro proteolytic stability against insulin degrading enzyme (Example 9). Type of series: in vitro ADME. Particulars: 37° C., 2 μM.
Description: (§1) The stability determination was done using appropriate time points (for SIF and SGF 15, 30, 60, 120 and 240 minutes; for proteases 15, 30, 60 and 120 minutes). The incubation was done at 37° C. and the % of remaining parent compound was calculated in reference to a TO time point.
(§2) For the determination of the parent compound an appropriate bioanalytical LC-MS/MS or LC-HRMS method was used, using the supernatant, after protein precipitation with ethanol (1 eq. v/v) and a centrifugation step.
(§3) Compounds were dissolved in diluted hydrochloric acid at a final concentration of 40 μM. The compound concentration in the assay was 2 μM. A 1:20 dilution of the working solution was done into the protease buffer and samples are then incubated at 37° C., under stirring. At the appropriate time point and aliquot was taken, the reaction was quenched ethanol (1 eq. v/v), than centrifuged. The supernatant was analyzed.
The target of series [3] is T1, insulin receptor isoform B (IR-B). Put plainly: Insulin receptor binding affinity assay of insulin analogs (Example 8A, SPA competition binding). More on the design: expressed in transfected cells; host or cells: CHO cells overexpressing the IR; isolated plasma membranes. Particulars: relative to human insulin; a value of 0 means below the detection limit. The method, then:
Methods for determining the binding affinity of an insulin analog to an insulin receptor are well known in the art. […] The insulin receptor can be present in a membrane of a cell, e.g. of CHO (Chinese Hamster Ovary) cell, which overexpresses a recombinant insulin receptor. In an embodiment, the insulin receptor binding affinity is determined as described in the Examples section.
Insulin receptor binding affinity for the analogs listed in Table 4 was determined as described in Hartmann et al. (Effect of the long-acting insulin analogs glargine and degludec on cardiomyocyte cell signaling and function. Cardiovasc Diabetol. 2016; 15:96). Isolation of insulin receptor embedded plasma membranes (M-IR) and competition binding experiments were performed as previously described (Sommerfeld et al., PLoS One. 2010; 5 (3): e9540). Briefly, CHO-cells overexpressing the IR were collected and re-suspended in ice-cold 2.25 STM buffer (2.25 M sucrose, 5 mM Tris-HCl pH 7.4, 5 mM MgCl2, complete protease inhibitor) and disrupted using a Dounce homogenizer followed by sonication. The homogenate was overlaid with 0.8 STM buffer (0.8 M sucrose, 5 mM Tris-HCl pH 7.4, 5 mM MgCl2, complete protease inhibitor) and ultra-centrifuged for 90 min at 100,000 g. Plasma membranes at the interface were collected and washed twice with phosphate buffered saline (PBS). The final pellet was re-suspended in dilution buffer (50 mM Tris-HCl pH 7.4, 5 mM MgCl2, complete protease inhibitor) and again homogenized with a Dounce homogenizer. Competition binding experiments were performed in a binding buffer (50 mM Tris-HCl, 150 mM NaCl, 0.1% BSA, complete protease inhibitor, adjusted to pH 7.8) in 96-well microplates. In each well 2 μg isolated membrane was incubated with 0.25 mg wheat germ agglutinin polyvinyltoluene polyethylenimine scintillation proximity assay (SPA) beads. […] The radioactivity was measured at equilibrium in a microplate scintillation counter (Wallac Microbeta, Freiburg, Germany).”

The target of series [4] is T2, immobilized human serum albumin (Homo sapiens, UniProt P02768).
T2 construct: purchased Chiralpak (Chiraltech) 34712
T2 sequence (P02768 25-609): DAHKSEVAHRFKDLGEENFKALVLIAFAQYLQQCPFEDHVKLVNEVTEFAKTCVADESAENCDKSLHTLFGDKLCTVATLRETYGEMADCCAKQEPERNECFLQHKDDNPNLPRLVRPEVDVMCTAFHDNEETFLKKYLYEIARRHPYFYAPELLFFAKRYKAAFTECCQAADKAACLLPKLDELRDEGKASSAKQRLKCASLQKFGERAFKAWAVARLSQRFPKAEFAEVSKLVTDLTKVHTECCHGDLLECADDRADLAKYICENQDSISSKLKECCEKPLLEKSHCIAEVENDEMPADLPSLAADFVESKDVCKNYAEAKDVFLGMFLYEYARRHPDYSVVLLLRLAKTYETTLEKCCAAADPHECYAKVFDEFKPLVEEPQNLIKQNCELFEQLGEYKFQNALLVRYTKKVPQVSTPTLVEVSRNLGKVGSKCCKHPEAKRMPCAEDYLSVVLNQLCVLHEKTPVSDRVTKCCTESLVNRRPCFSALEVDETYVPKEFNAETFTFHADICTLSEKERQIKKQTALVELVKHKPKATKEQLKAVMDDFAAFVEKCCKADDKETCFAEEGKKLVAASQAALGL
Put plainly: Albumin binding: affinity chromatography on columns with immobilized human serum albumin (net retention time). Particulars: isolated binders; HSA column 25° C., PBS pH 7.4/isopropanol gradient. As for the experimental part: In order to identify suitable binder molecules, which when bound to a peptide, such as an insulin, are able to improve the half-life in plasma and to prolong the profile of action, a system was established based on affinity chromatography with serum albumin columns, i.e. columns with immobilized serum albumin.
The net retention time of the binders (samples) was calculated according to the following formula: Net retention time=RetTimeSample−RetTimet0 marker
• Instrument: Waters Alliance 2795/Waters PDA 2996 or Waters H-Class UPLC equipped with a Waters Acquity photodiode-array detector • Software: Waters Empower 3 • Column: […]® HSA 50×4 mm; 5 μm Particle size • Chiraltech Order Numbers: HSA: 34712 • Eluent A: Phosphate Buffer saline (PBS) at pH=7.4 • Gibco PBS pH7.4 (10×) Phosphate Buffered Saline 500 ml; • Order Number: 70011-036 (500 ml) • Eluent B: Isopropanol • Fisher Order Number: A461-1 (10 • Gradient:
• Column temperature: 25° C. • Flow rate: 1.0 ml/min • Detection: λ=220 nm • Injection volume: 20 μL • Sample Conc.: 1 mg/ml insulin solution in PBS for insulin samples • 5 μL of 10 mM DMSO stock solution (DMSO evaporated and re-dissolved in 200 μL i-propanol/water 1:1 v/v) for isolated binder samples (250 μM, 0.2 mg/ml at 800 Da MolWeight) • t0 marker Sodium Nitrate (NaNO3) solution in water, 0.05 mg/ml • Diluted from aqueous 1 mg/ml stock solution (Fluka Order Number: 74246-100ML) • Reported Value Net retention time of sample: RetTime Sample−RetTime t0 marker
Affinity chromatography was carried out i) for insulin conjugates according to Examples 3.3 and 3.4 on a Waters Alliance Separation Module 2695 equipped with a Waters photodiode-array detector 2996 or Waters H-Class UPLC equipped with a Waters Acquity photodiode-array detector and ii) for isolated binders according to Example 2.11 on a Waters Alliance Separation Module 2795 equipped with a Waters photodiode-array detector 2996 or Waters H-Class UPLC equipped with a Waters Acquity photodiode-array detector.
Columns with immobilized human serum albumin (50×4 mm; 5 μm particle size) were purchased from Chiralpak and used for separations.
The columns with immobilized serum albumin were kept at 25° C. during the LC run, UV detection was carried out at 220 nm and injection volume was 20 μL.
The net retention time of the samples was reported according to Net retention time=RetTime Sample−RetTime t0 marker

The target of series [5] is T3, simulated gastric fluid (pepsin) (Sus scrofa, UniProt P00791).
T3 construct: from tissue; host or cells: porcine stomach mucosa
T3 sequence (P00791 60-385): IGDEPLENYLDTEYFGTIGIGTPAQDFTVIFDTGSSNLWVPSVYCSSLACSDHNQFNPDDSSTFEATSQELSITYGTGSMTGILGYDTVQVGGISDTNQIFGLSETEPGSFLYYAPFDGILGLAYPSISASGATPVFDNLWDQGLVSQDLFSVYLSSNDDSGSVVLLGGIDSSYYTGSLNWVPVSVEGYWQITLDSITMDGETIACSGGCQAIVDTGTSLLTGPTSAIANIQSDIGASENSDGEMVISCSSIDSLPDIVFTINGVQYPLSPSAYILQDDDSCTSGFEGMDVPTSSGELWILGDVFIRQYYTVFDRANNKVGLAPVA
Description: In vitro stability in simulated gastric fluid (Example 9). The series is classed as in vitro ADME, porcine. Conditions: 37° C., 2 μM.
Description: Two grams of sodium chloride and 3.2 g of purified pepsin (from porcine stomach mucosa, with an activity of 800 to 2500 units per mg of protein) were dissolved in 7.0 ml of hydrochloric acid. The volume was adjusted with water up to 1000 ml.
as §1, §2, §3

Sequence of Cathepsin D (P07339 65-412, species assumed): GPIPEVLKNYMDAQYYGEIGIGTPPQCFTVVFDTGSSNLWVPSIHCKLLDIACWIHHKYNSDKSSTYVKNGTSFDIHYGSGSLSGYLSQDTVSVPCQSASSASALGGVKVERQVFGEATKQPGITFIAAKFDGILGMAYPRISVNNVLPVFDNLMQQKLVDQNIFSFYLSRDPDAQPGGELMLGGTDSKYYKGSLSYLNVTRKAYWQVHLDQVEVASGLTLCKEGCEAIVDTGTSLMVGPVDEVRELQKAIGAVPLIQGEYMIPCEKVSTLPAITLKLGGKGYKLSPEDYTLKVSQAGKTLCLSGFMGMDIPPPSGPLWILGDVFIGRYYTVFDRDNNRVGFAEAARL
Description for Cathepsin D: as §1, §2, §3
Description for α-Chymotrypsin: as §1, §2, §3

As for `O=C(O)CCCCCCCCCc1ccc(OCc2ccc(S(=O)(=O)Nc3ccc(C(=O)NCCOCCOCC(=O)NCCOCCOCC(=O)O)cc3)cc2)cc1` [Binder 2], in the series with Cathepsin D, the “Percent remaining insulin analog, Cathepsin D (30 minutes)” value is recorded as 0%. Also, in series [1], the autophosphorylation activity came out at 0.87. For the same molecule, the “Percent remaining insulin analog, α-Chymotrypsin (120 minutes)” value with α-Chymotrypsin was 35%. For the same molecule, the “Percent remaining insulin analog, Insulin degrading enzyme, IDE (30 minutes)” value in series [2] came out at 81%. For the same molecule, the Insulin-receptor binding affinity in series [3] was found to be 1.05. For the same molecule, the “NRT [min] (net retention time on columns with immobilized human serum albumin)” value (“NRT [min]” below) in series [4] came to 17.88 min. The “Percent remaining insulin analog, Gastric fluid (30 minutes)” value in series [5] is 0%.

As to `O=C(O)CCCCCCCCCCCCCCOc1ccc(S(=O)(=O)Nc2ccc(C(=O)NCCOCCOCC(=O)NCCOCCOCC(=O)O)cn2)cc1` [Binder 7], in the series with Cathepsin D, the “Percent remaining insulin analog, Cathepsin D (30 minutes)” value came out at 52%. In addition, the autophosphorylation activity in series [1] was found to be 0.2. Besides, the “Percent remaining insulin analog, α-Chymotrypsin (120 minutes)” value in the series with α-Chymotrypsin was determined as 58%. In series [2], the “Percent remaining insulin analog, Insulin degrading enzyme, IDE (30 minutes)” value is 2%. The Insulin-receptor binding affinity in series [3] turned out to be 0.05. Further, the “NRT [min]” value in series [4] is reported as 14.65 min. Further, the “Percent remaining insulin analog, Gastric fluid (30 minutes)” value in series [5] was 30%.

Regarding `O=C(O)CCCCCCCCCCCCCc1ccc(CCOc2ccc(S(=O)(=O)Nc3ncc(C(=O)NCCOCCOCC(=O)NCCOCCOCC(=O)O)cn3)cc2)cc1` [Binder 12], the “Percent remaining insulin analog, Cathepsin D (30 minutes)” value with Cathepsin D was determined as 43%. In series [1], this molecule returned an autophosphorylation activity of 0.06. Further, in the series with α-Chymotrypsin, the “Percent remaining insulin analog, α-Chymotrypsin (120 minutes)” value was found to be 31%. Moreover, the “Percent remaining insulin analog, Insulin degrading enzyme, IDE (30 minutes)” value in series [2] was 11%. For the same molecule, the Insulin-receptor binding affinity in series [3] worked out at 0.01. The “NRT [min]” value in series [4] was found to be 14.95 min. Moreover, the “Percent remaining insulin analog, Gastric fluid (30 minutes)” value in series [5] is recorded as 44%.

In the case of `O=C(O)CCCCCCCCCOc1ccc(S(=O)(=O)Nc2ccc(C(=O)NCCOCCOCC(=O)NCCOCCOCC(=O)O)cn2)cc1` [Binder 19], the “Percent remaining insulin analog, Cathepsin D (30 minutes)” value with Cathepsin D is 0%. The same molecule had an autophosphorylation activity in series [1] of 0.32. Besides, in the series with α-Chymotrypsin, the “Percent remaining insulin analog, α-Chymotrypsin (120 minutes)” value is 30%. The “Percent remaining insulin analog, Insulin degrading enzyme, IDE (30 minutes)” value in series [2] is given as 98%. Also, the “NRT [min]” value in series [4] was determined as 10.82 min. For the same molecule, the “Percent remaining insulin analog, Gastric fluid (30 minutes)” value in series [5] is listed as 0%.

Turning to `O=C(O)CCCCCCCCCCCCCc1cc(Oc2ccc(S(=O)(=O)Nc3ccc(C(=O)NCCOCCOCC(=O)NCCOCCOCC(=O)O)cn3)cc2)ccc1F` [Binder 22], the “Percent remaining insulin analog, Cathepsin D (30 minutes)” value with Cathepsin D came to 20%. In addition, the autophosphorylation activity in series [1] turned out to be 0.04. Besides, the “Percent remaining insulin analog, α-Chymotrypsin (120 minutes)” value in the series with α-Chymotrypsin was 99%. The “Percent remaining insulin analog, Insulin degrading enzyme, IDE (30 minutes)” value in series [2] was 77%. The Insulin-receptor binding affinity in series [3] stood at 0.01. Further, in series [4], the “NRT [min]” value was 15.55 min. Besides, in series [5], the “Percent remaining insulin analog, Gastric fluid (30 minutes)” value is 52%.

As to `O=C(O)CCCCCCCCCCCc1cc(Oc2ccc(S(=O)(=O)Nc3ccc(C(=O)NCCOCCOCC(=O)NCCOCCOCC(=O)O)cn3)cc2)ccc1F` [Binder 24], in the series with Cathepsin D, the “Percent remaining insulin analog, Cathepsin D (30 minutes)” value worked out at 59%. This molecule registered an autophosphorylation activity in series [1] of 0.04. Moreover, the “Percent remaining insulin analog, α-Chymotrypsin (120 minutes)” value in the series with α-Chymotrypsin worked out at 40%. In addition, the “Percent remaining insulin analog, Insulin degrading enzyme, IDE (30 minutes)” value in series [2] is 86%. The same molecule displayed an Insulin-receptor binding affinity in series [3] of 0.01. For the same molecule, in series [4], the “NRT [min]” value came out at 15.76 min. In series [5], the “Percent remaining insulin analog, Gastric fluid (30 minutes)” value is 52%.

For the molecule `O=C(O)CCCCCCCCCCCCCCCOc1ccc(S(=O)(=O)Nc2ncc(C(=O)NCCOCCOCC(=O)NCCOCCOCC(=O)O)cn2)cc1F` [Binder 38], the “Percent remaining insulin analog, Cathepsin D (30 minutes)” value in the series with Cathepsin D is on record as 62%. In addition, the autophosphorylation activity in series [1] turned out to be 0.03. Also, the “Percent remaining insulin analog, α-Chymotrypsin (120 minutes)” value with α-Chymotrypsin was 34%. In addition, the “Percent remaining insulin analog, Insulin degrading enzyme, IDE (30 minutes)” value in series [2] stood at 86%. Moreover, the Insulin-receptor binding affinity in series [3] was 0. The “NRT [min]” value in series [4] was 13.53 min. Moreover, in series [5], the “Percent remaining insulin analog, Gastric fluid (30 minutes)” value is on record as 36%.
